Measurements published in the supplement of paper PMC12458215.
± gives the uncertainty stated by the source.

Test system: HEK293T
Test: plasma membrane surface immunostaining intensity (anti-HA, deep receptor scanning) (arbitrary fluorescence units); higher = higher plasma membrane expression

| Sequence | plasma membrane surface immunostaining intensity (GPCR class: A (Olfactory)) | plasma membrane surface immunostaining intensity (GPCR class: A) | also measured |
| --- | --- | --- | --- |
| MDKINQTFVREFILLGLSGYPKLEIIFFALILVMYVVILIGNGVLIIASILDSRLHMPMYFFLGNLSFLDICYTTSSIPSTLVSLISKKRNISFSGCAVQMFFGFAMGSTECFLLGMMAFDRYVAICNPLRYPIIMNKVVYVLLTSVSWLSGGINSTVQTSLAMRWPFCGNNIINHFLCEILAVLKLACSDISVNIVTLAVSNIAFLVLPLLVIFFSYMFILYTILRTNSATGRHKAFSTCSAHLTVVIIFYGTIFFMYAKPKSQDLLGKDNLQATEGLVSMFYGVVTPMLNPIIYSLRNKDVKAAIKYLLSRKAINQ [OR13C4] | 311 ± 110 |  |  |
| MEGALAANWSAEAANASAAPPGAEGNRTAGPPRRNEALARVEVAVLCLILLLALSGNACVLLALRTTRQKHSRLFFFMKHLSIADLVVAVFQVLPQLLWDITFRFYGPDLLCRLVKYLQVVGMFASTYLLLLMSLDRCLAICQPLRSLRRRTDRLAVLATWLGCLVASAPQVHIFSLREVADGVFDCWAVFIQPWGPKAYITWITLAVYIVPVIVLAACYGLISFKIWQNLRLKTAAAAAAEAPEGAAAGDGGRVALARVSSVKLISKAKIRTVKMTFIIVLAFIVCWTPFFFVQMWSVWDANAPKEASAFIIVMLLASLNSCCNPWIYMLFTGHLFHELVQRFLCCSASYLKGRRLGETSASKKSNSSSFVLSHRSSSQRSCSQPSTA [OXTR] |  | 5390 ± 230 |  |
| MTPLCLNCSVLPGDLYPGGARNPMACNGSAARGHFDPEDLNLTDEALRLKYLGPQQTELFMPICATYLLIFVVGAVGNGLTCLVILRHKAMRTPTNYYLFSLAVSDLLVLLVGLPLELYEMWHNYPFLLGVGGCYFRTLLFEMVCLASVLNVTALSVERYVAVVHPLQARSMVTRAHVRRVLGAVWGLAMLCSLPNTSLHGIRQLHVPCRGPVPDSAVCMLVRPRALYNMVVQTTALLFFCLPMAIMSVLYLLIGLRLRRERLLLMQEAKGRGSAAARSRYTCRLQQHDRGRRQVTKMLFVLVVVFGICWAPFHADRVMWSVVSQWTDGLHLAFQHVHVISGIFFYLGSAANPVLYSLMSSRFRETFQEALCLGACCHRLRPRHSSHSLSRMTTGSTLCDVGSLGSWVHPLAGNDGPEAQQETDPS [NMUR1] |  | 2770 ± 700 |  |
| MTSGSVFFYILIFGKYFSHGGGQDVKCSLGYFPCGNITKCLPQLLHCNGVDDCGNQADEDNCGDNNGWSLQFDKYFASYYKMTSQYPFEAETPECLVGSVPVQCLCQGLELDCDETNLRAVPSVSSNVTAMSLQWNLIRKLPPDCFKNYHDLQKLYLQNNKITSISIYAFRGLNSLTKLYLSHNRITFLKPGVFEDLHRLEWLIIEDNHLSRISPPTFYGLNSLILLVLMNNVLTRLPDKPLCQHMPRLHWLDLEGNHIHNLRNLTFISCSNLTVLVMRKNKINHLNENTFAPLQKLDELDLGSNKIENLPPLIFKDLKELSQLNLSYNPIQKIQANQFDYLVKLKSLSLEGIEISNIQQRMFRPLMNLSHIYFKKFQYCGYAPHVRSCKPNTDGISSLENLLASIIQRVFVWVVSAVTCFGNIFVICMRPYIRSENKLYAMSIISLCCADCLMGIYLFVIGGFDLKFRGEYNKHAQLWMESTHCQLVGSLAILSTEVSVLLLTFLTLEKYICIVYPFRCVRPGKCRTITVLILIWITGFIVAFIPLSNKEFFKNYYGTNGVCFPLHSEDTESIGAQIYSVAIFLGINLAAFIIIVFSYGSMFYSVHQSAITATEIRNQVKKEMILAKRFFFIVFTDALCWIPIFVVKFLSLLQVEIPGTITSWVVIFILPINSALNPILYTLTTRPFKEMIHRFWYNYRQRKSMDSKGQKTYAPSFIWVEMWPLQEMPPELMKPDLFTYPCEMSLISQSTRLNSYS [RXFP1] |  | 165 ± 19 |  |
| MDTGNWSQVAEFIILGFPHLQGVQIYLFLLLLLIYLMTVLGNLLIFLVVCLDSRLHTPMYHFVSILSFSELGYTAATIPKMLANLLSEKKTISFSGCLLQIYFFHSLGATECYLLTAMAYDRYLAICRPLHYPTLMTPTLCAEIAIGCWLGGLAGPVVEISLISRLPFCGPNRIQHVFCDFPPVLSLACTDTSINVLVDFVINSCKILATFLLILCSYVQIICTVLRIPSAAGKRKAISTCASHFTVVLIFYGSILSMYVQLKKSYSLDYDQALAVVYSVLTPFLNPFIYSLRNKEIKEAVRRQLKRIGILA [OR6N1] | 347 ± 130 |  |  |
| MANITRMANHTGRLDFILMGLFRQSKHPALLSVVIFVVFLKALSGNAVLILLIHCDAHLHSPMYFFISQLSLMDMAYISVTVPKMLLDQVMGVNKVSAPECGMQMFLYLTLAGSEFFLLATMAYDRYVAICHPLRYPVLMNHRVCLFLASGCWFLGSVDGFMLTPITMSFPFCRSWEIHHFFCEVPAVTILSCSDTSLYETLMYLCCVLMLLIPVTIISSSYLLILLTVHRMNSAEGRKKAFATCSSHLTVVILFYGAAVYTYMLPSSYHTPEKDMMVSVFYTILTPVLNPLIYSLRNKDVMGALKKMLTVRFVL [OR2T29] | 131 ± 21 |  |  |
| MPNSTTVMEFLLMRFSDVWTLQILHSASFFMLYLVTLMGNILIVTVTTCDSSLHMPMYFFLRNLSILDACYISVTVPTSCVNSLLDSTTISKAGCVAQVFLVVFFVYVELLFLTIMAHDRYVAVCQPLHYPVIVNSRICIQMTLASLLSGLVYAGMHTGSTFQLPFCRSNVIHQFFCDIPSLLKLSCSDTFSNEVMIVVSALGVGGGCFIFIIRSYIHIFSTVLGFPRGADRTKAFSTCIPHILVVSVFLSSCSSVYLRPPAIPAATQDLILSGFYSIMPPLFNPIIYSLRNKQIKVAIKKIMKRIFYSENV [OR14C36] | 264 ± 80 |  |  |
| MPSPPGLRALWLCAALCASRRAGGAPQPGPGPTACPAPCHCQEDGIMLSADCSELGLSAVPGDLDPLTAYLDLSMNNLTELQPGLFHHLRFLEELRLSGNHLSHIPGQAFSGLYSLKILMLQNNQLGGIPAEALWELPSLQSLRLDANLISLVPERSFEGLSSLRHLWLDDNALTEIPVRALNNLPALQAMTLALNRISHIPDYAFQNLTSLVVLHLHNNRIQHLGTHSFEGLHNLETLDLNYNKLQEFPVAIRTLGRLQELGFHNNNIKAIPEKAFMGNPLLQTIHFYDNPIQFVGRSAFQYLPKLHTLSLNGAMDIQEFPDLKGTTSLEILTLTRAGIRLLPSGMCQQLPRLRVLELSHNQIEELPSLHRCQKLEEIGLQHNRIWEIGADTFSQLSSLQALDLSWNAIRSIHPEAFSTLHSLVKLDLTDNQLTTLPLAGLGGLMHLKLKGNLALSQAFSKDSFPKLRILEVPYAYQCCPYGMCASFFKASGQWEAEDLHLDDEESSKRPLGLLARQAENHYDQDLDELQLEMEDSKPHPSVQCSPTPGPFKPCEYLFESWGIRLAVWAIVLLSVLCNGLVLLTVFAGGPVPLPPVKFVVGAIAGANTLTGISCGLLASVDALTFGQFSEYGARWETGLGCRATGFLAVLGSEASVLLLTLAAVQCSVSVSCVRAYGKSPSLGSVRAGVLGCLALAGLAAALPLASVGEYGASPLCLPYAPPEGQPAALGFTVALVMMNSFCFLVVAGAYIKLYCDLPRGDFEAVWDCAMVRHVAWLIFADGLLYCPVAFLSFASMLGLFPVTPEAVKSVLLVVLPLPACLNPLLYLLFNPHFRDDLRRLRPRAGDSGPLAYAAAGELEKSSCDSTQALVAFSDVDLILEASEAGRPPGLETYGFPSVTLISCQQPGAPRLEGSHCVEPEGNHFGNPQPSMDGELLLRAEGSTPAGGGLSGGGGFQPSGLAFASHV [LGR6] |  | 479 ± 50 |  |
| MASPSNDSTAPVSEFLLICFPNFQSWQHWLSLPLSLLFLLAMGANTTLLITIQLEASLHQPLYYLLSLLSLLDIVLCLTVIPKVLAIFWFDLRSISFPACFLQMFIMNSFLTMESCTFMVMAYDRYVAICHPLRYPSIITDQFVARAVVFVIARNAFVSLPVPMLSARLRYCAGNIIKNCICSNLSVSKLSCDDITFNQLYQFVAGWTLLGSDLILIVISYSFILKVVLRIKAEGAVAKALSTCGSHFILILFFSTVLLVLVITNLARKRIPPDVPILLNILHHLIPPALNPIVYGVRTKEIKQGIQNLLKRL [OR56A4] | 419 ± 210 |  |  |
| MGNWSTVTEITLIAFPALLEIRISLFVVLVVTYTLTATGNITIISLIWIDHRLQTPMYFFLSNLSFLDILYTTVITPKLLACLLGEEKTISFAGCMIQTYFYFFLGTVEFILLAVMSFDRYMAICDPLHYTVIMNSRACLLLVLGCWVGAFLSVLFPTIVVTRLPYCRKEINHFFCDIAPLLQVACINTHLIEKINFLLSALVILSSLAFTTGSYVYIISTILRIPSTQGRQKAFSTCASHITVVSIAHGSNIFVYVRPNQNSSLDYDKVAAVLITVVTPLLNPFIYSLRNEKVQEVLRETVNRIMTLIQRKT [OR6M1] | 127 ± 27 |  |  |
| MKIANNTVVTEFILLGLTQSQDIQLLVFVLILIFYLIILPGNFLIIFTIRSDPGLTAPLYLFLGNLAFLDASYSFIVAPRMLVDFLSEKKVISYRGCITQLFFLHFLGGGEGLLLVVMAFDRYIAICRPLHCSTVMNPRACYAMMLALWLGGFVHSIIQVVLILRLPFCGPNQLDNFFCDVRQVIKLACTDMFVVELLMVFNSGLMTLLCFLGLLASYAVILCHVRRAASEGKNKAMSTCTTRVIIILLMFGPAIFIYMCPFRALPADKMVSLFHTVIFPLMNPMIYTLRNQEVKTSMKRLLSRHVVCQVDFIIRN [OR4N4] | 255 ± 110 |  |  |
| MTTSPILQLLLRLSLCGLLLQRAETGSKGQTAGELYQRWERYRRECQETLAAAEPPSGLACNGSFDMYVCWDYAAPNATARASCPWYLPWHHHVAAGFVLRQCGSDGQWGLWRDHTQCENPEKNEAFLDQRLILERLQVMYTVGYSLSLATLLLALLILSLFRRLHCTRNYIHINLFTSFMLRAAAILSRDRLLPRPGPYLGDQALALWNQALAACRTAQIVTQYCVGANYTWLLVEGVYLHSLLVLVGGSEEGHFRYYLLLGWGAPALFVIPWVIVRYLYENTQCWERNEVKAIWWIIRTPILMTILINFLIFIRILGILLSKLRTRQMRCRDYRLRLARSTLTLVPLLGVHEVVFAPVTEEQARGALRFAKLGFEIFLSSFQGFLVSVLYCFINKEVQSEIRRGWHHCRLRRSLGEEQRQLPERAFRALPSGSGPGEVPTSRGLSSGTLPGPGNEASRELESYC [GIPR] |  |  | plasma membrane surface immunostaining intensity (GPCR class: B): 6435 ± 30 |
| MSGTKLEDSPPCRNWSSASELNETQEPFLNPTDYDDEEFLRYLWREYLHPKEYEWVLIAGYIIVFVVALIGNVLVCVAVWKNHHMRTVTNYFIVNLSLADVLVTITCLPATLVVDITETWFFGQSLCKVIPYLQTVSVSVSVLTLSCIALDRWYAICHPLMFKSTAKRARNSIVIIWIVSCIIMIPQAIVMECSTVFPGLANKTTLFTVCDERWGGEIYPKMYHICFFLVTYMAPLCLMVLAYLQIFRKLWCRQIPGTSSVVQRKWKPLQPVSQPRGPGQPTKSRMSAVAAEIKQIRARRKTARMLMIVLLVFAICYLPISILNVLKRVFGMFAHTEDRETVYAWFTFSHWLVYANSAANPIIYNFLSGKFREEFKAAFSCCCLGVHHRQEDRLTRGRTSTESRKSLTTQISNFDNISKLSEQVVLTSISTLPAANGAGPLQNW [HCRTR2] |  | 5620 ± 490 |  |
